Each block holds one binder with its values, some of them ahead of it. Ends that are not written are not given here.
Molecular target: T1, LSALT phage (T7 phage displaying the LSALT peptide LSALTPSPSWLKYKAL) (also: displayed on T7 phage, fused to the coat protein)
T1 construct: The peptide is not naturally occurring; it is the out-of-frame product of Ube2n; also called Ube2n (LSALT) phage; LSALT-bacteriophage
T1 peptide: LSALTPSPSWLKYKAL
Assay: biopanning of a combinatorial M13 phage library against LSALT phage immobilized on nitrocellulose
Description: When the LSALT phage was immobilized on nitrocellulose and biopanned against with a combinatorial M13 phage library, the following peptides were isolated as peptides that bind specifically with the LSALT. These peptides provide potential targets for action of LSALT peptides, variants and modifications thereof.

B1: EQFTNLLDMTYA (SEQ ID NO: 5) (peptide)
peptide: EQFTNLLDMTYA
notes: also called putative target of LSALT
binding result: binds

B2: EQFTNLLDMYTA (SEQ ID NO: 3) (peptide)
peptide: EQFTNLLDMYTA
notes: as for B1
binding result: binds

B3: NERNSWH (SEQ ID NO: 16) (peptide)
peptide: NERNSWH
notes: as for B1
binding result: binds

B4: DNTRVDT (SEQ ID NO: 9) (peptide)
peptide: DNTRVDT
notes: as for B1
binding result: binds

B5: HATGTHGLSLSH (SEQ ID NO: 6) (peptide)
peptide: HATGTHGLSLSH
notes: as for B1
binding result: binds

B6: PTLPWKK (SEQ ID NO: 10) (peptide)
peptide: PTLPWKK
notes: as for B1
binding result: binds

Results, then the binder that gave them:

binding result: binds
B7: TNITESQQLNWR (SEQ ID NO: 7) (peptide)
peptide: TNITESQQLNWR
notes: as for B1

binding result: binds
B8: LGPAHLY (SEQ ID NO: 13) (peptide)
peptide: LGPAHLY
notes: as for B1

binding result: binds
B9: HLPSIIPTMPYR (SEQ ID NO: 2) (peptide)
peptide: HLPSIIPTMPYR
notes: as for B1

binding result: binds
B10: LNTQTGK (SEQ ID NO: 15) (peptide)
peptide: LNTQTGK
notes: as for B1

binding result: binds
B11: MNVTPRQ (SEQ ID NO: 11) (peptide)
peptide: MNVTPRQ
notes: as for B1

binding result: binds
B12: GLHNKTH (SEQ ID NO: 14) (peptide)
peptide: GLHNKTH
notes: as for B1

binding result: binds
B13: IPPSYSATLPALR (SEQ ID NO: 4) (peptide)
peptide: IPPSYSATLPALR
notes: as for B1

binding result: binds
B14: TTEHPRK (SEQ ID NO: 12) (peptide)
peptide: TTEHPRK
notes: as for B1

binding result: binds
B15: FEQKKGT (SEQ ID NO: 8) (peptide)
peptide: FEQKKGT
notes: as for B1
